{"source": "patent US20240101638A1", "about": "(CURRUS BIOLOGICS, published 2024)", "biological_target": "T1, Mesothelin (Homo sapiens (Human), UniProt Q13421 296-598)", "T1 construct": "Soluble analyte in SPR at 0.15-111 nM", "T1 sequence (Q13421 other isoform, or with tags, fused parts or gaps limits assumed)": "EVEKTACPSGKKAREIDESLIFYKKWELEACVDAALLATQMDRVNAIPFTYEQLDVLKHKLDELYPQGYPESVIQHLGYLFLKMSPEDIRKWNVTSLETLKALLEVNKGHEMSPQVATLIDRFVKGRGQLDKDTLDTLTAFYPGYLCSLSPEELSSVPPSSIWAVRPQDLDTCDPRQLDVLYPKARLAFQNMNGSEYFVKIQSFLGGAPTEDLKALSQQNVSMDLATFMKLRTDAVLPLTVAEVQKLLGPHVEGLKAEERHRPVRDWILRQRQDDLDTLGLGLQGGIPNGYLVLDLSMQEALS", "experiment": "SPR, antibody as ligand, mesothelin as analyte", "note": "Values joined by “and” are separate entries in the source; they are usually repeats but may differ in a detail not shown here. Identical values can stand only once."}
{"binder": "7B1 IgG1 LALA anti-mesothelin antibody (antibody, V domains shown, Tested as IgG1 with LALA mutations; It was the immobilised ligand in the SPR; two samples were measured; also called 7B1 IgG1 LALA AA cAb7385-10.16; 7b1 IgG1 LALA - Sample 1) VH: EVHLVESGGGLVQPGGSLRLSCAASGFTFSRYWMSWVRQAQGKGLEWVASIKQAGSEKTYVDSVKGRFTISRDNAKNSLSLQMNSLRAEDTAVYYCAREGAYYYDSASYYPYYYYYSMDVWGQGTTVTVSS VL: not shown", "values": [{"measurement": "Kd", "result": "0.912 nM and 0.658 nM"}, {"measurement": "koff", "result": "0.000189 s⁻¹ and 0.000132 s⁻¹"}, {"measurement": "kon", "result": "207000 M⁻¹ s⁻¹ and 201000 M⁻¹ s⁻¹"}]}
